Molecular target: CD46 (UniProt P15529)
Test: magnetic bead radioligand binding assay; CD46 on Ni-NTA beads, 10 ng radioimmunoconjugate, bead activity/standard

target binding fraction [%]	Substance
> 75	225Ac-Macropa-PEG0-YS5 (antibody)
> 75	225Ac-Macropa-PEG4-YS5 (antibody)
> 75	225Ac-Macropa-PEG8-YS5 (antibody)
